Measured values reported in publication PMC9482650, “Quantitative fragmentomics allow affinity mapping of interactomes” (Nature Communications, 2022).

T1: PDZD7_3, Q9H5P4
T1 sequence (Q9H5P4 857-944, limits assumed, looked up): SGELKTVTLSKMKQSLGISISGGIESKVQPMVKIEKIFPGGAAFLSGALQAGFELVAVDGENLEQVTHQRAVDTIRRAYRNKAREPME

T2: SHANK1, Q9Y566
T2 sequence (Q9Y566 658-767, limits assumed, looked up): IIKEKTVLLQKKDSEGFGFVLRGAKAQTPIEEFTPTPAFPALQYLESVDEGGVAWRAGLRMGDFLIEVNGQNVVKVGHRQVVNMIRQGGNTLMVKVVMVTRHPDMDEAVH

T3: MPP2, Q14168
T3 sequence (Q14168 180-250, limits assumed, looked up): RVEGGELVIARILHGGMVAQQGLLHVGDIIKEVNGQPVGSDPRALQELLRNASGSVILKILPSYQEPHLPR

T4: DFNB31_2, Q9P202
T4 sequence (Q9P202 274-371, limits assumed, looked up): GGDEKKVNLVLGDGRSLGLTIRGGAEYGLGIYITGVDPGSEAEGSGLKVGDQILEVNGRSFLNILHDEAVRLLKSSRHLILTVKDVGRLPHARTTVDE

T5: SIPA1L2, Q9P2F8
T5 sequence (Q9P2F8 945-1036, limits assumed, looked up): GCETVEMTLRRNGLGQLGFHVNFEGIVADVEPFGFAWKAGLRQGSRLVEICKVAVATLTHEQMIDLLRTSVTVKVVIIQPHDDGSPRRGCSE

T6: CARD11, Q9BXL7
T6 sequence (Q9BXL7 662-765, limits assumed, looked up): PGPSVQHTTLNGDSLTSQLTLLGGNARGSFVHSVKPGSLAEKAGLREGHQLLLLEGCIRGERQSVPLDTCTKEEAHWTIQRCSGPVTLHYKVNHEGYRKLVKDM

T7: DFNB31_1, Q9P202
T7 sequence (Q9P202 135-233, limits assumed, looked up): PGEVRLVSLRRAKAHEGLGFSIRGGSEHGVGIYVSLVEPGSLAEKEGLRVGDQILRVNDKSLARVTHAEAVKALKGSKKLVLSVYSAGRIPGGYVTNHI

T8: LNX2_2, Q8N448
T8 sequence (Q8N448 334-432, limits assumed, looked up): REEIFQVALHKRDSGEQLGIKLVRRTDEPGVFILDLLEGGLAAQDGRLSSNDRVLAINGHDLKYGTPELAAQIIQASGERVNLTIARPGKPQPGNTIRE

T9: SNTG2, Q9NY99
T9 sequence (Q9NY99 68-166, limits assumed, looked up): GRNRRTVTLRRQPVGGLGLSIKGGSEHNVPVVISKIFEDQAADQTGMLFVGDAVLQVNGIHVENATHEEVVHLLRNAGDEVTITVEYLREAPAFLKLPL

T10: GRIP1_4, Q9Y3R0
T10 sequence (Q9Y3R0 467-571, limits assumed, looked up): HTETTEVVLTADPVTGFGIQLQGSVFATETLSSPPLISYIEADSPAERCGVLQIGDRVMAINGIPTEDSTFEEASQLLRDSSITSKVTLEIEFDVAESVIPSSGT

T11: PARD3B_1, Q8TEW8
T11 sequence (Q8TEW8 196-299, limits assumed, looked up): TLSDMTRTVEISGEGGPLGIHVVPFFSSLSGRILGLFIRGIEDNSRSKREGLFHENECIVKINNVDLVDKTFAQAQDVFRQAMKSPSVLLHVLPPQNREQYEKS

T12: PTPN13_1, Q12923
T12 sequence (Q12923 1088-1188, limits assumed, looked up): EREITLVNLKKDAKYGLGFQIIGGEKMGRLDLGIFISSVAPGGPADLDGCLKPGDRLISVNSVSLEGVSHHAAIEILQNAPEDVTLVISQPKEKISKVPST


Assays:
Experiment in all cases: holdup assay
Set-up in all cases: key: below the threshold = too weak to quantify, mostly under pKd 3.1 to 4
Details in all cases: plain residues with an end cap or a label only (N-terminal biotin on a linker: ado-ado)
NHERF2_2, Q15599 = molecular target: NHERF2_2, Q15599
Chain of NHERF2_2, Q15599 (Q15599 142-238): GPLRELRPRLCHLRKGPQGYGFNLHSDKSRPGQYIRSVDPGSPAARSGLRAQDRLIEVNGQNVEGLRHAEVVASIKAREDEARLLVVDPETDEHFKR

MAGI1_1, Q96QZ7 = molecular target: MAGI1_1, Q96QZ7
Chain of MAGI1_1, Q96QZ7 (Q96QZ7 1-106): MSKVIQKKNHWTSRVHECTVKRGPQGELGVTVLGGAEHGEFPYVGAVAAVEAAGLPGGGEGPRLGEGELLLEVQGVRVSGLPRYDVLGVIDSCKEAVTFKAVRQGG

PDZD7_3, Q9H5P4 = molecular target: T1, PDZD7_3, Q9H5P4
MAGI2_6, Q86UL8 = molecular target: MAGI2_6, Q86UL8
Chain of MAGI2_6, Q86UL8 (Q86UL8 1141-1229): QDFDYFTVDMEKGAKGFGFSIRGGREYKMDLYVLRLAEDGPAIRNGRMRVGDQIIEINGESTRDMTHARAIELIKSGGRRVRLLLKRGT

SHANK1, Q9Y566 = molecular target: T2, SHANK1, Q9Y566
SCRIB_3, Q14160 = molecular target: SCRIB_3, Q14160
Chain of SCRIB_3, Q14160 (Q14160 999-1103): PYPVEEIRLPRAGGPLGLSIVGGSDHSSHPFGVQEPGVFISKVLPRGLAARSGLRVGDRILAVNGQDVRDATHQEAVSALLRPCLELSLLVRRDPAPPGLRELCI

MPP2, Q14168 = molecular target: T3, MPP2, Q14168
DFNB31_2, Q9P202 = molecular target: T4, DFNB31_2, Q9P202
NHERF4_1, Q86UT5-2 = molecular target: NHERF4_1, Q86UT5-2
Chain of NHERF4_1, Q86UT5-2 (Q86UT5 other isoform, or with tags, fused parts or gaps): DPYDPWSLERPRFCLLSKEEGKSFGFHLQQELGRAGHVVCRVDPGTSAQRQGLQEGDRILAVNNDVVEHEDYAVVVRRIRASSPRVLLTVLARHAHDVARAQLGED

LNX1_1, Q8TBB1 = molecular target: LNX1_1, Q8TBB1
Chain of LNX1_1, Q8TBB1 (Q8TBB1 261-371): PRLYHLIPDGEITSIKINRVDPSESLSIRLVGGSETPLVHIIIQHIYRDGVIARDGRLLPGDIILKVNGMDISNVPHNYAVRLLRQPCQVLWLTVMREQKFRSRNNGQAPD

IL16_1, Q14005 = molecular target: IL16_1, Q14005
Chain of IL16_1, Q14005 (Q14005 210-306): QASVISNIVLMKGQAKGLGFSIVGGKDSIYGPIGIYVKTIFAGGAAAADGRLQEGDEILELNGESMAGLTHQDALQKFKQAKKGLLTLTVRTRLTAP

SIPA1L2, Q9P2F8 = molecular target: T5, SIPA1L2, Q9P2F8
CARD11, Q9BXL7 = molecular target: T6, CARD11, Q9BXL7
DFNB31_1, Q9P202 = molecular target: T7, DFNB31_1, Q9P202
Inadl_9, Q8NI35 = molecular target: Inadl_9, Q8NI35
Chain of Inadl_9, Q8NI35 (Q8NI35 1530-1615): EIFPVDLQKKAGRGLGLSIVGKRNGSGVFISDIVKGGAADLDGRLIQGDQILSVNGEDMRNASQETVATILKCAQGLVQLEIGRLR

LNX2_2, Q8N448 = molecular target: T8, LNX2_2, Q8N448
GRASP, Q7Z6J2 = molecular target: GRASP, Q7Z6J2
Chain of GRASP, Q7Z6J2 (Q7Z6J2 96-193): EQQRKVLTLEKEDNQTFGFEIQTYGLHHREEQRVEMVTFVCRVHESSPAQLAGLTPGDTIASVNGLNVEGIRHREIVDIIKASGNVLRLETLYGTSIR

SNTG2, Q9NY99 = molecular target: T9, SNTG2, Q9NY99
GRIP1_4, Q9Y3R0 = molecular target: T10, GRIP1_4, Q9Y3R0
GIPC2, Q8TF65 = molecular target: GIPC2, Q8TF65
Chain of GIPC2, Q8TF65 (Q8TF65 112-203): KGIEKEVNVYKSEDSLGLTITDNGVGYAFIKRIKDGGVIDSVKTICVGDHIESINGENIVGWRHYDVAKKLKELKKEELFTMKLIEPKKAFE

PARD3B_1, Q8TEW8 = molecular target: T11, PARD3B_1, Q8TEW8
DLG4_1, P78352 = molecular target: DLG4_1, P78352
Chain of DLG4_1, P78352 (P78352 62-152): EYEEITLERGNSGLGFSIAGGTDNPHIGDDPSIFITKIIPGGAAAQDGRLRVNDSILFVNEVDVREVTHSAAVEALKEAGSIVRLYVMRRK

LDB3, O75112 = molecular target: LDB3, O75112
Chain of LDB3, O75112 (O75112 1-94): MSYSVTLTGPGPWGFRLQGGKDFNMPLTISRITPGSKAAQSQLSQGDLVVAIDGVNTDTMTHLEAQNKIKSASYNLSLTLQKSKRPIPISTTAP

PTPN13_1, Q12923 = molecular target: T12, PTPN13_1, Q12923
GRID2IP_2, A4D2P6 = molecular target: GRID2IP_2, A4D2P6
Chain of GRID2IP_2, A4D2P6 (A4D2P6 272-370): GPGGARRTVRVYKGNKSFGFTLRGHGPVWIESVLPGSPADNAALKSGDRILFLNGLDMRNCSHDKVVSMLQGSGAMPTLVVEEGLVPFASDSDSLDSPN

Binder	pKd (NHERF2_2, Q15599)	pKd (MAGI1_1, Q96QZ7)	pKd (PDZD7_3, Q9H5P4)	pKd (MAGI2_6, Q86UL8)	pKd (SHANK1, Q9Y566)	pKd (SCRIB_3, Q14160)	pKd (MPP2, Q14168)	pKd (DFNB31_2, Q9P202)	pKd (NHERF4_1, Q86UT5-2)	pKd (LNX1_1, Q8TBB1)	pKd (IL16_1, Q14005)	pKd (SIPA1L2, Q9P2F8)	pKd (CARD11, Q9BXL7)	pKd (DFNB31_1, Q9P202)	pKd (Inadl_9, Q8NI35)	pKd (LNX2_2, Q8N448)	pKd (GRASP, Q7Z6J2)	pKd (SNTG2, Q9NY99)	pKd (GRIP1_4, Q9Y3R0)	pKd (GIPC2, Q8TF65)	other results
NNMAFETTHF [SLC5A12, Q1EHB4]	4.7	below the threshold	below the threshold	4	5.81	4.02	below the threshold	below the threshold	4.35	below the threshold	below the threshold	below the threshold	below the threshold	4.01	below the threshold	below the threshold	4.8	below the threshold	below the threshold	below the threshold	pKd (PARD3B_1, Q8TEW8): 4.49; pKd (DLG4_1, P78352): below the threshold; pKd (LDB3, O75112): below the threshold; pKd (PTPN13_1, Q12923): below the threshold; pKd (GRID2IP_2, A4D2P6): 3.49
LLQEEWETVM [PTH1R, Q03431]	5.14	below the threshold	4.45	3.75	4.85	4.64	below the threshold	below the threshold	3.56	3.72	below the threshold	below the threshold	below the threshold	3.84	below the threshold	below the threshold	3.72	3.95	below the threshold	below the threshold	pKd (PARD3B_1, Q8TEW8): 4.43; pKd (DLG4_1, P78352): below the threshold; pKd (LDB3, O75112): below the threshold; pKd (PTPN13_1, Q12923): below the threshold; pKd (GRID2IP_2, A4D2P6): 4.11
SSSVNVSSNL [CXCR1, P25024]	4.44	below the threshold	below the threshold	below the threshold	3.94	4.02	below the threshold	below the threshold	3.74	3.59	below the threshold	below the threshold	below the threshold	3.56	below the threshold	below the threshold	3.63	below the threshold	below the threshold	below the threshold	pKd (PARD3B_1, Q8TEW8): 3.72; pKd (DLG4_1, P78352): below the threshold; pKd (LDB3, O75112): below the threshold; pKd (PTPN13_1, Q12923): below the threshold; pKd (GRID2IP_2, A4D2P6): 3.84
LPPPESESKV [KCNJ9, Q92806]	below the threshold	below the threshold	below the threshold	3.48	below the threshold	below the threshold	below the threshold	below the threshold	below the threshold	below the threshold	4.11	below the threshold	3.73	4.01	below the threshold	3.52	below the threshold	3.74	below the threshold	below the threshold	pKd (PARD3B_1, Q8TEW8): below the threshold; pKd (DLG4_1, P78352): below the threshold; pKd (LDB3, O75112): below the threshold; pKd (PTPN13_1, Q12923): below the threshold; pKd (GRID2IP_2, A4D2P6): below the threshold
